Assay [1] deals with T1, Recombinant human TNFRSF1β (TNFRII) (human, UniProt P20333 23-257).
T1 construct: Plate-adsorbed antigen of the ELISA; also called TNFR2; TNFRSF1B
T1 sequence (looked up): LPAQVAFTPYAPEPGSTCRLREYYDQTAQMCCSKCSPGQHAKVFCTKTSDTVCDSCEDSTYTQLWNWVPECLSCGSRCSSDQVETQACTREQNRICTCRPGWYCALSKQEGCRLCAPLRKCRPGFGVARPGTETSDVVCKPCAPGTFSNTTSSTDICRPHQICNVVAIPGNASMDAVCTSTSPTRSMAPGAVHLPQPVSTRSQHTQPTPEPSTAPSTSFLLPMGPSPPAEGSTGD
Nature of the assay: ELISA, plate coated with a dilution series of the recombinant TNFRSF protein [panel A]. Here is the method:
(§1) An eight point, two-fold dilution series of each recombinant human TNFRSF protein was prepared after dilution of stock proteins to 5 μg/mL in PBS. Subsequently, 50 μL of each antigen dilution was transferred in duplicate to wells of a Nunc 96-well MaxiSorp flat bottom plate, and incubated overnight at 4° C. to adsorb proteins to the plate. Afterwards, plates were washed three times with PBS in a BioTek® plate washer to remove unbound protein. Anti OX40 mAb29, 9B12, and control antibodies were diluted in PBS to a final concentration of 10 μg/mL, and 50 μL of mAb were added to each well and incubated at room temperature for one hour to bind mAb to plate-bound protein. Thereafter, wells were washed with PBS/Tween-20 0.1% (volume/volume) using a BioTek® plate washer. HRP conjugated goat anti-human or goat anti-mouse secondary antibodies at 10 μg/mL was added to each well and incubated at room temperature for 1 hour. After three washes in PBS/Tween-20 0.1%, 50 μL of TMB substrate was added to each well and incubated at room temperature for 5 minutes to develop the colorimetric product. Reactions were stopped by adding 50 μL of 0.5 molar H₂SO₄ to wells, and plates read immediately at 450 nm using an Envision C plate reader for detection of the colorimetric product.

The target in assay [2] is T2, Recombinant human TNFRSF14 (HVEM) (human, UniProt Q92956 39-202, limits assumed).
T2 construct: Plate-adsorbed antigen of the ELISA
T2 sequence (looked up): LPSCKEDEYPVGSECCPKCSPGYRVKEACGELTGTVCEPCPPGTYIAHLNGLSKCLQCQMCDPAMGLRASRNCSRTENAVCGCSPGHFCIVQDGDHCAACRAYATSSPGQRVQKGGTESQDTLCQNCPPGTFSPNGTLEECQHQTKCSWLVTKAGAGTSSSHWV
Described as above. The method, then:
as §1

Assay [3] addresses T3, Recombinant human TNFRSF5 (CD40) (human, UniProt P25942 21-193).
T3 construct: Plate-adsorbed antigen of the ELISA
The description is as above. Here is the method: as §1

The target in assay [4] is T4, Recombinant human TNFRSF6 (FAS) (human, UniProt P25445 26-173).
T4 construct: Plate-adsorbed antigen of the ELISA
T4 sequence (looked up): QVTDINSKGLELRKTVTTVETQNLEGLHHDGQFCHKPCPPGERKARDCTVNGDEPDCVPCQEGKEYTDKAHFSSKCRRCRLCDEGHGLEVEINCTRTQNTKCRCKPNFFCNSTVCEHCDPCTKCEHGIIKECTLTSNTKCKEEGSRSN
Described as above. The method, then: as §1

The target of assay [5] is T5, Recombinant human TNFRSF21 (DR6) (human, UniProt O75509 42-349, limits assumed).
T5 construct: Plate-adsorbed antigen of the ELISA
T5 sequence (looked up): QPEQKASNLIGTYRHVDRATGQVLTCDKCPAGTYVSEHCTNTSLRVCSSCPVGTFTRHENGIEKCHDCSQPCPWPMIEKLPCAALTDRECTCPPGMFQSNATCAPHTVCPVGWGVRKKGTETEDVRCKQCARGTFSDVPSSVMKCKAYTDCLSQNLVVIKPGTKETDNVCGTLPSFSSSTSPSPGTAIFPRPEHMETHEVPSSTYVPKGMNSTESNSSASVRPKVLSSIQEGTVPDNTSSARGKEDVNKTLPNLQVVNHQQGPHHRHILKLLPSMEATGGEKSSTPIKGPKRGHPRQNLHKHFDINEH
The assay is described as above. The method, then: as §1

In assay [6] the target is T6, Recombinant human TNFRSF9 (CD137) (human, UniProt Q07011 24-186, limits assumed).
T6 construct: Plate-adsorbed antigen of the ELISA
The description is as above. The method, then: as §1

The target in assay [7] is T7, Recombinant human TNFRSF16 (NGFR) (human, UniProt P08138 29-250).
T7 construct: Plate-adsorbed antigen of the ELISA
T7 sequence (looked up): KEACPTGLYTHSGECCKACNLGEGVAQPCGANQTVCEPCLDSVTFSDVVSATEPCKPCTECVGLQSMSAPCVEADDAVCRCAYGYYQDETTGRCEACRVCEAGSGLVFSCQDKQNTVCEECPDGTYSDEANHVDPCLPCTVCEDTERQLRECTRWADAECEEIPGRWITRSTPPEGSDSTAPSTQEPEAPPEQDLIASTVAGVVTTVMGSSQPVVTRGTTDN
The description is as above. The method, then:
as §1

Assay [8] has as its target T8, Recombinant human TNFRSF11B (OPG) (human, UniProt O00300 22-401, limits assumed).
T8 construct: Plate-adsorbed antigen of the ELISA; also called osteoprotegerin
T8 sequence (looked up): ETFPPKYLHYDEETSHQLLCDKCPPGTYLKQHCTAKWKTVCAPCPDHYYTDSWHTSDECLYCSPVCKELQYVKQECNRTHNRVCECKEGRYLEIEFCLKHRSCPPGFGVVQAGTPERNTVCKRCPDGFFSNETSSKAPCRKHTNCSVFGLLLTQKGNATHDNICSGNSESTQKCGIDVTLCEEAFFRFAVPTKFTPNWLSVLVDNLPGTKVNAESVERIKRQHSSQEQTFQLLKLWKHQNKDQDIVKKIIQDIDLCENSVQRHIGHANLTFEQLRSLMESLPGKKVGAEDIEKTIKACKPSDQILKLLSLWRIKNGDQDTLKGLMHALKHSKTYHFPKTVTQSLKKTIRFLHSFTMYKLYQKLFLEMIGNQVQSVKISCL
Described as above. The method, then:
as §1

The target of assay [9] is T9, Recombinant human TNFRSF3 (LTβR) (human, UniProt P36941 28-227, limits assumed).
T9 construct: Plate-adsorbed antigen of the ELISA
T9 sequence (P36941 28-227 limits assumed): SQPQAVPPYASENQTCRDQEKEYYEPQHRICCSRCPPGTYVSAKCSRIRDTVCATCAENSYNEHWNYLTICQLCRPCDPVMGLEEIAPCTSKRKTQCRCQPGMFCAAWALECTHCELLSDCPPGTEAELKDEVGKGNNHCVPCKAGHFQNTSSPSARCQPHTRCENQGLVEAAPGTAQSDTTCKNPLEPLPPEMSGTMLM
Described as above. Here is the method:
as §1

Assay [10] has as its target T10, Recombinant human TNFRSF18 (GITR) (human, UniProt Q9Y5U5 26-162, limits assumed).
T10 construct: Plate-adsorbed antigen of the ELISA
T10 sequence (looked up): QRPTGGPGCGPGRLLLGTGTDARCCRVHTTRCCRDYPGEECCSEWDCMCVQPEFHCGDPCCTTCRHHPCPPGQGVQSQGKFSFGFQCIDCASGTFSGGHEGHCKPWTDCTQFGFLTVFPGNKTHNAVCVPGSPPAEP
Described as above. The method, then:
as §1

The target of assay [11] is T11, Recombinant human TNFRSF11A (RANK) (human, UniProt Q9Y6Q6 30-212).
T11 construct: Plate-adsorbed antigen of the ELISA; also called CD265
T11 sequence (looked up): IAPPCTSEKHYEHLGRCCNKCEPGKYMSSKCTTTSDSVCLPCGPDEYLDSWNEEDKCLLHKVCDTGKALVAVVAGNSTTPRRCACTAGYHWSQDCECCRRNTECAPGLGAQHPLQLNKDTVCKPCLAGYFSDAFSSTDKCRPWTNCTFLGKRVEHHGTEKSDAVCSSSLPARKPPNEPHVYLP
The assay is described as above. Here is the method:
as §1

For a further assay, the target named is T12, Mouse OX40 (mouse, UniProt P47741 20-272).
T12 construct: also called mOX40; murine OX40
T12 sequence: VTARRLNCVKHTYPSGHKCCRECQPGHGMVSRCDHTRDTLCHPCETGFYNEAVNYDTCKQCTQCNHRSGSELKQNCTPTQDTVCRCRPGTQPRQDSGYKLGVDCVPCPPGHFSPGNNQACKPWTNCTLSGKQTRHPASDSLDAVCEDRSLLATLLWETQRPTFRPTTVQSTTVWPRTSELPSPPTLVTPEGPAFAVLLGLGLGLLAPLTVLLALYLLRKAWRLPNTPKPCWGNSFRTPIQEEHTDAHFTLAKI
Nature of the assay: flow cytometry on activated primary mouse CD4+ T cells. The method, then: Mouse CD4⁺ T cells (150,000 per well in 100 μL complete medium) were cultured overnight in 96-well plates coated with 2 μg/mL each hamster anti-mouse CD3 and hamster anti-mouse CD28 antibodies to activate T cells and induce OX40 expression. Activated CD4⁺ T cells were removed from the incubation plate and 100,000 cells were transferred to each well of a non-tissue culture-treated 96-well round-bottom plate for binding assays and washed once with FACS buffer. Binding was performed with 10 μg/mL of OX40mAb24, 9B12 and rat anti-mouse OX40, clone OX86 (positive control) antibodies each serially diluted 3-fold in FACS buffer for a 10-point data curve. For negative controls, 10 μg/mL R347 human IgG1, MOPC-21 mouse IgG1 or RTK2071 rat IgG1 were diluted 6-fold for a 3 point data curve. FACS buffer (50 μL) containing OX40mAb24, or antibodies, was added to CD4⁺ T cells in duplicate and incubated. Following primary incubation, cells were washed with 200 μL of 4° C. […] Following secondary antibody incubation, cells were washed with 4° C. FACS buffer (200 μL per wash) and suspended in 100 μL FACS buffer for flow cytometry analysis on a BD LSRII flow cytometer as described in Section 2.3.
Background: In flow cytometry, cells or beads pass a laser one at a time.

T3 sequence (P25942 21-193 limits assumed): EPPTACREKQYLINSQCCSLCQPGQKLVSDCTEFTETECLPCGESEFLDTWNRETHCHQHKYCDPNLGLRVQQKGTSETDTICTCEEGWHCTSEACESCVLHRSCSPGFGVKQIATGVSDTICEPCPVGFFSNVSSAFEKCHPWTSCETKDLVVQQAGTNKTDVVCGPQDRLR

B1: OX40mAb29 (antibody, human IgG1, kappa)
heavy: QVQLQESGPGLVKPSQTLSLTCAVYGGSFSSGYWNWIRKHPGKGLEYIGYISYNGITYHNPSLKSRITINRDTSKNQYSLQLNSVTPEDTAVYYCARYKYDYDGGHAMDYWGQGTLVTVSSASTKGPSVFPLAPSSKSTSGGTAALGCLVKDYFPEPVTVSWNSGALTSGVHTFPAVLQSSGLYSLSSVVTVPSSSLGTQTYICNVNHKPSNTKVDKRVEPKSCDKTHTCPPCPAPEFEGGPSVFLFPPKPKDTLMISRTPEVTCVVVDVSHEDPEVKFNWYVDGVEVHNAKTKPREEQYNSTYRVVSVLTVLHQDWLNGKEYKCKVSNKALPASIEKTISKAKGQPREPQVYTLPPSREEMTKNQVSLTCLVKGFYPSDIAVEWESNGQPENNYKTTPPVLDSDGSFFLYSKLTVDKSRWQQGNVFSCSVMHEALHNHYTQKSLSLSPGK
light: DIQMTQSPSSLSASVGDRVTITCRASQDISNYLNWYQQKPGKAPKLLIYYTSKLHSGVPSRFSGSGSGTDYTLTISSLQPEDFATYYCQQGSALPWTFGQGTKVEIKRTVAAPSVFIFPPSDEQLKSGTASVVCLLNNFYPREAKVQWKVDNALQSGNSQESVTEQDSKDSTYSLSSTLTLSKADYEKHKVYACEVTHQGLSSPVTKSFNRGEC
notes: also called Anti OX40 mAb29; IgG1 triple mutant (IgG1-TM) version of OX40mAb24
B1: the binding result in assay [1], in assay [2], in assay [3], in assay [4], in assay [5] and in [6] was “no binding” in each case. The binding result in assay [7], in assay [8], in assay [9], in [10] and in [11] was “no binding” throughout.

B2: Rat anti-mouse OX40, clone OX86 (antibody, V domains shown)
VH: QVQLKESGPGLVQPSQTLSLTCTVSGFSLTGYNLHWVRQPPGKGLEWMGRMRYDGDTYYNSVLKSRLSISRDTSKNQVFLKMNSLQTDDTAIYYCTRDGRGDSFDYWGQGVMVTVSS
VL: DIVMTQGALPNPVPSGESASITCRSSQSLVYKDGQTYLNWFLQRPGQSPQLLTYWMSTRASGVSDRFSGSGSGTYFTLKISRVRAEDAGVYYCQQVREYPFTFGSGTKLEIK
notes: Rat IgG1κ; also called anti-mouse CD134 (OX86 clone) antibody
As for B2, the binding result with Mouse OX40 was “binds”.

The values above are taken from patent publication US20160137740A1 (AstraZeneca / MedImmune, published 2016).
